Results: the supplement of paper PMC9876800

System: peptide library, one residue held at a place counted from the S/T acceptor
Assay: relative phosphorylation of the sub-library (ratio to the mean residue at this position); higher = residue favoured
Details: human
Outline: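 Each biotinylated degenerate peptide sub-library fixed one residue at one position around a central Ser/Thr and was incubated with a purified recombinant kinase, a human or orthologue construct, in 384-well plates. The 90 min reactions, under kinase-specific conditions, contained 50 μM peptide and 50 μM ATP spiked with γ-32P-ATP. Phosphorylation was read by phosphorimaging spots on streptavidin membranes and quantifying them by densitometry. Relative sub-library phosphorylation expresses each value as a ratio to the mean residue at that position.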

Sequence of DCLK2, construct: aa1-690 (Q8N568 1-690, looked up): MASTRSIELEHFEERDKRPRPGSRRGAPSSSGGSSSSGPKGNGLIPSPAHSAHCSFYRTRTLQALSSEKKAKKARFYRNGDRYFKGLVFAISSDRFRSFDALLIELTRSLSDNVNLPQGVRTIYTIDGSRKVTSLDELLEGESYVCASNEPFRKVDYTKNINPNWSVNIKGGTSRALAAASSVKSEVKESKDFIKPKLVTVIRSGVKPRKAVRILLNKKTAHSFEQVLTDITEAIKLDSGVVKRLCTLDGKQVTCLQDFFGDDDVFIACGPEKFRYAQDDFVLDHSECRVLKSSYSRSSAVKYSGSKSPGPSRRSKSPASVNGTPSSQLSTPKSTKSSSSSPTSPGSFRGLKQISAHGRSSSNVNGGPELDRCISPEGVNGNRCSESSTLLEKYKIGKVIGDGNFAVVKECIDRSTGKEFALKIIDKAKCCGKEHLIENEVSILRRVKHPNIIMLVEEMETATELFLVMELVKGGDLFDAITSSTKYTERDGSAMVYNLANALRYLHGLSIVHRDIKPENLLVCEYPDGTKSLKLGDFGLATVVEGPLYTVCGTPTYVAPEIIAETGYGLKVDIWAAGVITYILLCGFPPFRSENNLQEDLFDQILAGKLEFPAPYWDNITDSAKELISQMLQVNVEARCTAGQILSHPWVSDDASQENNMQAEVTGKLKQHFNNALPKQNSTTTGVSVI
Sequence of CHUK, construct: Full length (O15111 whole entry, looked up): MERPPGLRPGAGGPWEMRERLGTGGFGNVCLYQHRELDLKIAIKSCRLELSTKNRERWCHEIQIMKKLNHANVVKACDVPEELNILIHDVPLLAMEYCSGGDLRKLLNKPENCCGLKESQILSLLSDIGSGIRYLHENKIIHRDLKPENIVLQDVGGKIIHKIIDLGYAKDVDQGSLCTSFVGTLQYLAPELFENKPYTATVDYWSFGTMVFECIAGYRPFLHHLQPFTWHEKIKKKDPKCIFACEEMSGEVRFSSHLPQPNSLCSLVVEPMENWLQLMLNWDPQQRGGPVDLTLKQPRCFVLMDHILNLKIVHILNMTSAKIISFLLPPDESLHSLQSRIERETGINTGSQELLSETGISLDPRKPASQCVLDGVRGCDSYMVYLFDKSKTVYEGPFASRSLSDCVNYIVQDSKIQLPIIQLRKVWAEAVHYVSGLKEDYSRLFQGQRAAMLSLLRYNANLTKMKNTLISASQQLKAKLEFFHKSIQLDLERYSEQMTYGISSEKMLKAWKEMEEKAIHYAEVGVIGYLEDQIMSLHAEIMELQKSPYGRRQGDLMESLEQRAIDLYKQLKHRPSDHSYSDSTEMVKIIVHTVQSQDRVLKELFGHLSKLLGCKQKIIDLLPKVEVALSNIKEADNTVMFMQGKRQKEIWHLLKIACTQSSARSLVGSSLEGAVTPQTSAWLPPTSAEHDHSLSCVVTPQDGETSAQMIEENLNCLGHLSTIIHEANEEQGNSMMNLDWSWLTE
Sequence of ERN2, construct: aa490-end (Q76MJ5 490-926, looked up): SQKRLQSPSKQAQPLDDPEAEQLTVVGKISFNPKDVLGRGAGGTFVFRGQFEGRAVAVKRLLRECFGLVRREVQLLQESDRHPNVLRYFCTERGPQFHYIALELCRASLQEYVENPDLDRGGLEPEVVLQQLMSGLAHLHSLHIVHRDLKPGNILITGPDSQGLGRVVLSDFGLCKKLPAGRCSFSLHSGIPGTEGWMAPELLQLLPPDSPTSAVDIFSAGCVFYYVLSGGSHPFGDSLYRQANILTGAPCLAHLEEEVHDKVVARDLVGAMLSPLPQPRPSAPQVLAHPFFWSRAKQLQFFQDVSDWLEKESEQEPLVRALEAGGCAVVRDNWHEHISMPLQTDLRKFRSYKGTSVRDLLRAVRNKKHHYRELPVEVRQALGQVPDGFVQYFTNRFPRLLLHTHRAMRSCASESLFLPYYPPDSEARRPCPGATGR
Sequence of DAPK3, construct: aa1-404 (O43293 1-404, looked up): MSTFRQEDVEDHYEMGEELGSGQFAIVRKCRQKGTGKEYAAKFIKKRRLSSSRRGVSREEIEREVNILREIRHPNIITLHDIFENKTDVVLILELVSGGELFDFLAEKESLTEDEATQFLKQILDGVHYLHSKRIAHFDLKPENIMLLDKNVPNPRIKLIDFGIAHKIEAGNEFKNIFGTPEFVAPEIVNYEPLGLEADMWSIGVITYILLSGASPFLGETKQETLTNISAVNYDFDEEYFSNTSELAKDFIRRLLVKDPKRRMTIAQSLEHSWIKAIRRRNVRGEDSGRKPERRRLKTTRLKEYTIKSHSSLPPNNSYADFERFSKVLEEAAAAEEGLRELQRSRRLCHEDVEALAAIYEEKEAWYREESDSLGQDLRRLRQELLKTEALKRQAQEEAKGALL

CHUK, construct: Full length (from UniProt O15111)
relative phosphorylation
Details | at +1 | at +2 | at +3 | at +4 | at -1 | at -2 | at -3 | at -4 | at -5
A fixed | 0.486 | 0.954 | 0.902 | 0.978 | 0.716 | 1.1 | 0.777 | 1.15 | 1.29
D fixed | 0.518 | 1.23 | 1.9 | 1.66 | 1.19 | 0.571 | 1.27 | 2.17 | 2.57
E fixed | 0.61 | 1.26 | 2.02 | 1.55 | 1.11 | 1.1 | 1.53 | 2.15 | 2.29
F fixed | 1.22 | 0.635 | 0.576 | 0.717 | 0.688 | 2 | 0.809 | 0.602 | 0.657
G fixed | 1.18 | 1.55 | 1.48 | 1.43 | 0.615 | 0.548 | 1.12 | 1.55 | 1.4
H fixed | 1.01 | 1.34 | 1.14 | 1.17 | 1.17 | 1.23 | 1.15 | 0.888 | 1.12
I fixed | 1.94 | 0.78 | 0.548 | 0.769 | 0.346 | 0.874 | 0.365 | 0.49 | 0.395
K fixed | 0.28 | 0.408 | 0.358 | 0.746 | 1.5 | 0.25 | 0.875 | 0.417 | 0.556
L fixed | 1.68 | 0.726 | 0.688 | 0.724 | 0.702 | 1.59 | 0.408 | 0.552 | 0.548
M fixed | 1.86 | 0.982 | 0.772 | 0.918 | 0.962 | 1.06 | 0.784 | 0.79 | 0.591
N fixed | 0.931 | 1.9 | 1.28 | 1.17 | 1.58 | 1.35 | 1.69 | 1.17 | 1.22
P fixed | 0.282 | 1.12 | 1.16 | 1.24 | 1.54 | 0.68 | 2.06 | 1.87 | 0.981
Q fixed | 0.729 | 1.25 | 1.24 | 1.13 | 1.47 | 0.804 | 1.18 | 0.978 | 0.889
R fixed | 0.162 | 0.27 | 0.26 | 0.177 | 0.641 | 0.176 | 0.728 | 0.314 | 0.476
V fixed | 1.46 | 1.1 | 0.636 | 0.667 | 0.688 | 0.644 | 0.567 | 0.547 | 0.664
W fixed | 1.29 | 0.756 | 1.04 | 0.978 | 0.784 | 0.663 | 0.704 | 0.693 | 0.791
Y fixed | 1.36 | 0.75 | 1.01 | 0.977 | 1.31 | 2.36 | 0.991 | 0.68 | 0.562
pThr fixed | 0.978 | 1.06 | 1.08 | 1.62 | 0.755 | 1.24 | 1.4 | 1.56 | 1.06
pTyr fixed | 1.1 | 1.25 | 0.908 | 1.08 | 1.55 | 5.95 | 2.02 | 1.32 | 0.984

DAPK3, construct: aa1-404 (from UniProt O43293)
relative phosphorylation
Details | at +1 | at +2 | at +3 | at +4 | at -1 | at -2 | at -3 | at -4 | at -5
A fixed | 0.877 | 0.903 | 0.724 | 0.839 | 0.73 | 1.06 | 0.654 | 1 | 0.953
D fixed | 1.61 | 0.84 | 0.753 | 0.791 | 0.823 | 0.448 | 0.447 | 0.844 | 0.79
E fixed | 1.69 | 0.976 | 0.719 | 0.706 | 0.601 | 0.398 | 0.393 | 0.85 | 0.666
F fixed | 0.52 | 0.932 | 1.02 | 1.14 | 0.667 | 0.338 | 0.412 | 0.759 | 0.583
G fixed | 1.15 | 0.661 | 0.89 | 0.939 | 0.888 | 0.74 | 0.636 | 0.947 | 1.03
H fixed | 0.825 | 1.01 | 1.04 | 1.51 | 1.29 | 1.24 | 0.835 | 1.1 | 1.17
I fixed | 0.786 | 0.873 | 1.95 | 0.95 | 0.58 | 0.313 | 0.311 | 0.645 | 0.73
K fixed | 0.595 | 0.789 | 0.685 | 0.712 | 1.48 | 1.33 | 2.51 | 1.65 | 1.59
L fixed | 0.707 | 1.44 | 1.63 | 0.902 | 0.946 | 0.361 | 0.365 | 0.677 | 0.927
M fixed | 1.15 | 1.5 | 1.08 | 0.984 | 0.943 | 0.415 | 0.422 | 0.871 | 0.912
N fixed | 1.33 | 1.03 | 0.776 | 1 | 1.69 | 0.952 | 0.548 | 0.85 | 0.891
P fixed | 0.309 | 0.9 | 0.78 | 0.885 | 1.06 | 0.406 | 0.703 | 0.854 | 0.959
Q fixed | 2.62 | 1.25 | 0.804 | 0.797 | 1.15 | 0.989 | 0.769 | 1.04 | 0.942
R fixed | 0.811 | 1.13 | 0.942 | 1.03 | 1.71 | 6.46 | 6.61 | 2.25 | 2.36
V fixed | 0.807 | 0.827 | 1.41 | 0.927 | 0.698 | 0.397 | 0.294 | 0.844 | 0.699
W fixed | 0.638 | 0.941 | 0.984 | 1.61 | 0.753 | 0.755 | 0.634 | 1.02 | 0.776
Y fixed | 0.582 | 1.01 | 0.808 | 1.28 | 1 | 0.401 | 0.462 | 0.803 | 1.01
pThr fixed | 1.83 | 1.01 | 0.854 | 1.04 | 0.695 | 0.53 | 0.633 | 0.84 | 0.973
pTyr fixed | 1.19 | 1.02 | 1.35 | 1.08 | 0.957 | 0.623 | 0.605 | 0.929 | 1.1

DCLK2, construct: aa1-690 (from UniProt Q8N568)
relative phosphorylation
Details | at +1 | at +2 | at +3 | at +4 | at -1 | at -2 | at -3 | at -4 | at -5
A fixed | 0.573 | 0.702 | 0.791 | 0.84 | 0.731 | 1.26 | 0.798 | 1.03 | 0.816
D fixed | 0.373 | 0.373 | 0.673 | 0.855 | 0.669 | 0.725 | 0.372 | 0.573 | 0.437
E fixed | 0.414 | 0.304 | 0.701 | 0.838 | 0.436 | 1.56 | 0.427 | 0.748 | 0.4
F fixed | 3.73 | 1.72 | 1.17 | 1.22 | 0.853 | 0.659 | 0.406 | 0.988 | 1.55
G fixed | 0.532 | 0.412 | 0.887 | 0.922 | 1.31 | 1.08 | 0.589 | 1.11 | 0.76
H fixed | 0.815 | 1.63 | 1.19 | 0.987 | 1.2 | 0.934 | 0.831 | 1 | 0.907
I fixed | 0.918 | 1.35 | 0.815 | 0.917 | 0.522 | 0.437 | 0.33 | 0.885 | 1.1
K fixed | 1.18 | 0.639 | 1.35 | 1.28 | 2.27 | 1.9 | 3.49 | 1.8 | 1.36
L fixed | 0.882 | 1.26 | 1.09 | 1.16 | 0.884 | 0.687 | 0.436 | 0.99 | 1.47
M fixed | 1.4 | 1.07 | 1.02 | 1.12 | 0.804 | 0.909 | 0.484 | 0.947 | 1.15
N fixed | 0.77 | 0.49 | 0.91 | 0.93 | 1.16 | 1.1 | 0.581 | 0.784 | 0.649
P fixed | 0.371 | 0.522 | 0.727 | 1.19 | 0.981 | 0.423 | 0.701 | 0.977 | 0.946
Q fixed | 0.915 | 0.531 | 0.947 | 1.01 | 0.863 | 1.79 | 0.787 | 1.04 | 0.802
R fixed | 0.903 | 0.554 | 1.37 | 1.05 | 2.06 | 1.65 | 5.46 | 1.32 | 1.44
V fixed | 0.702 | 1.1 | 0.923 | 0.758 | 0.554 | 0.462 | 0.315 | 0.941 | 0.923
W fixed | 1.22 | 1.42 | 1.27 | 1.09 | 0.621 | 0.725 | 0.549 | 0.914 | 1.17
Y fixed | 1.3 | 2.91 | 1.17 | 0.846 | 1.09 | 0.695 | 0.447 | 0.942 | 1.12
pThr fixed | 0.782 | 0.935 | 1.04 | 0.993 | 0.455 | 0.391 | 0.374 | 0.652 | 0.506
pTyr fixed | 0.776 | 7.04 | 1.07 | 0.687 | 0.515 | 0.367 | 0.298 | 0.548 | 0.576

ERN2, construct: aa490-end (from UniProt Q76MJ5)
relative phosphorylation
Details | at +1 | at +2 | at +3 | at +4 | at -1 | at -2 | at -3 | at -4 | at -5
A fixed | 0.889 | 0.315 | 0.399 | 0.712 | 1.08 | 0.826 | 0.865 | 0.986 | 0.969
D fixed | 0.292 | 0.208 | 0.22 | 0.365 | 0.7 | 0.969 | 0.947 | 0.892 | 0.961
E fixed | 0.428 | 0.217 | 0.165 | 0.347 | 1.19 | 1.29 | 1.02 | 0.918 | 0.87
F fixed | 0.683 | 0.733 | 1.24 | 0.849 | 0.953 | 0.865 | 0.676 | 0.677 | 0.695
G fixed | 1.16 | 0.332 | 0.407 | 0.844 | 0.758 | 1.11 | 1.32 | 1.04 | 1.01
H fixed | 0.924 | 0.767 | 1.27 | 1.08 | 1.6 | 1.08 | 1.17 | 1.17 | 1.24
I fixed | 0.78 | 1.09 | 1.22 | 1.04 | 0.459 | 0.672 | 0.792 | 0.732 | 0.796
K fixed | 2.19 | 2.21 | 1.39 | 1.94 | 0.955 | 1.43 | 1.12 | 1.53 | 1.6
L fixed | 0.702 | 1.39 | 1.38 | 0.935 | 0.58 | 0.592 | 0.66 | 0.693 | 0.691
M fixed | 1.24 | 1.32 | 0.95 | 0.996 | 0.951 | 0.814 | 0.861 | 0.751 | 0.704
N fixed | 0.997 | 0.507 | 0.441 | 0.763 | 0.986 | 1.1 | 1.21 | 1.38 | 1.17
P fixed | 0.247 | 0.305 | 0.346 | 1.15 | 1.47 | 1.37 | 1.09 | 0.914 | 0.915
Q fixed | 1.44 | 0.787 | 0.591 | 1.04 | 1.42 | 1.25 | 1.27 | 1.14 | 1.14
R fixed | 2.95 | 2.57 | 3.56 | 1.81 | 0.94 | 1.5 | 1.42 | 1.57 | 1.78
V fixed | 0.809 | 1.16 | 0.669 | 0.86 | 0.927 | 0.732 | 0.776 | 0.759 | 0.704
W fixed | 0.572 | 0.72 | 1.45 | 1.21 | 0.798 | 0.651 | 0.875 | 0.994 | 0.893
Y fixed | 0.694 | 2.36 | 1.3 | 1.04 | 1.23 | 0.769 | 0.941 | 0.858 | 0.858
pThr fixed | 0.298 | 0.212 | 0.237 | 0.355 | 0.355 | 0.648 | 0.798 | 0.779 | 0.732
pTyr fixed | 0.286 | 0.235 | 0.283 | 0.296 | 0.692 | 0.694 | 0.652 | 0.474 | 0.562
